Tests used:
[1] = target: integrin α3β1 (UniProt P26006); experiment: cell-based or functional assay
[2] = target: integrin α6β4 (UniProt P23229); experiment: cell-based or functional assay
[3] = target: T1, murine CD151 (murine, UniProt O35566 1-253); experiment: Western blot of murine lung, pancreas and colon tissue lysates (10 µg total protein), non-reductive conditions
T1 construct: Endogenous protein in mouse tissue lysates on a Western blot; also called murine receptor
T1 sequence (looked up): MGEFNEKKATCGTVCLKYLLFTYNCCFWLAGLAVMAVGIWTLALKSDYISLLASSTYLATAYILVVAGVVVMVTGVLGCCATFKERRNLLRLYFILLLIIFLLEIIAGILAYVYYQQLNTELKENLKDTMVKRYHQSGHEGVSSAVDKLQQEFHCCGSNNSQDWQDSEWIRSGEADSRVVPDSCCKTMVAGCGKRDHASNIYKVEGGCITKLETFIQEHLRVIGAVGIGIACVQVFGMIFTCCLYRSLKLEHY
Procedure: The specificity of the TS151 and TS151r antibodies was evaluated by Western blot. Lysates of human and murine lung, pancreas and colon tissues (Biochain, 10 μg of total proteins) and also increasing amounts of HT-29 cell lysate (10, 20 and 50 μg of total proteins) were placed on a 4-12% acrylamide gel (BioRad). After electrophoresis (non-reductive conditions), the proteins were transferred onto nitrocellulose membranes. The transfer membranes were then incubated with the purified TS151 and TS151r antibodies and then with a rabbit anti-mouse Ig polyclonal antibody coupled to peroxidase (GE Healthcare) before ECL-type visualisation.

Sequence of integrin α6β4 (P23229 24-1130 limits assumed, chain 1 of 2): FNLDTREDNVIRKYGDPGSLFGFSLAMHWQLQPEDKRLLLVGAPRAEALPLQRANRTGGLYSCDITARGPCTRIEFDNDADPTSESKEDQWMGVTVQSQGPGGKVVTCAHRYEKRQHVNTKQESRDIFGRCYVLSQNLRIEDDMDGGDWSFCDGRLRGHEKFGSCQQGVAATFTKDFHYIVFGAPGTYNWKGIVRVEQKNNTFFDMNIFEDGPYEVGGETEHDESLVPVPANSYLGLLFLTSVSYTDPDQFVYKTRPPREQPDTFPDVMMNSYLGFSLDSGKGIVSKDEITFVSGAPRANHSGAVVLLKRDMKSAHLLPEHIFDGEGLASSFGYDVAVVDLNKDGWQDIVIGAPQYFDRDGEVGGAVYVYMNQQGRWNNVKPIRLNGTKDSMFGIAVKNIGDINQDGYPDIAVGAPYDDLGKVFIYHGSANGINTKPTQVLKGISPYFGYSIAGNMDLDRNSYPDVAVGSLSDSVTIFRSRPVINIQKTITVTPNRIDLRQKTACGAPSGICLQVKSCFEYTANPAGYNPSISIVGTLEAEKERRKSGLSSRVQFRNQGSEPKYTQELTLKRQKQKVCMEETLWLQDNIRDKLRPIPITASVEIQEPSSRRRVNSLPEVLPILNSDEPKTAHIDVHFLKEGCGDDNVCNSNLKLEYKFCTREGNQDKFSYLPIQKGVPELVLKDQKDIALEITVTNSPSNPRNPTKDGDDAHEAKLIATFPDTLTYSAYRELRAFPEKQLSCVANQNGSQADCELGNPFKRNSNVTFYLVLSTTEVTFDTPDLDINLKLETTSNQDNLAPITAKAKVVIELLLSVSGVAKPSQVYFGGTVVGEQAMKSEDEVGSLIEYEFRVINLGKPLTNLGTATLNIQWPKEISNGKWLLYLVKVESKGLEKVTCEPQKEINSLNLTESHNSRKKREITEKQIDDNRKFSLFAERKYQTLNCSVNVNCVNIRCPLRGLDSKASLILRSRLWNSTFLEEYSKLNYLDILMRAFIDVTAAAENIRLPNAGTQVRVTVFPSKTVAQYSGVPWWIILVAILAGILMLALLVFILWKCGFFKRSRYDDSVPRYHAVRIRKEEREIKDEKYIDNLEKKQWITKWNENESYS
Sequence of integrin α6β4 (P16144 28-1822 limits assumed, chain 2 of 2, further chain): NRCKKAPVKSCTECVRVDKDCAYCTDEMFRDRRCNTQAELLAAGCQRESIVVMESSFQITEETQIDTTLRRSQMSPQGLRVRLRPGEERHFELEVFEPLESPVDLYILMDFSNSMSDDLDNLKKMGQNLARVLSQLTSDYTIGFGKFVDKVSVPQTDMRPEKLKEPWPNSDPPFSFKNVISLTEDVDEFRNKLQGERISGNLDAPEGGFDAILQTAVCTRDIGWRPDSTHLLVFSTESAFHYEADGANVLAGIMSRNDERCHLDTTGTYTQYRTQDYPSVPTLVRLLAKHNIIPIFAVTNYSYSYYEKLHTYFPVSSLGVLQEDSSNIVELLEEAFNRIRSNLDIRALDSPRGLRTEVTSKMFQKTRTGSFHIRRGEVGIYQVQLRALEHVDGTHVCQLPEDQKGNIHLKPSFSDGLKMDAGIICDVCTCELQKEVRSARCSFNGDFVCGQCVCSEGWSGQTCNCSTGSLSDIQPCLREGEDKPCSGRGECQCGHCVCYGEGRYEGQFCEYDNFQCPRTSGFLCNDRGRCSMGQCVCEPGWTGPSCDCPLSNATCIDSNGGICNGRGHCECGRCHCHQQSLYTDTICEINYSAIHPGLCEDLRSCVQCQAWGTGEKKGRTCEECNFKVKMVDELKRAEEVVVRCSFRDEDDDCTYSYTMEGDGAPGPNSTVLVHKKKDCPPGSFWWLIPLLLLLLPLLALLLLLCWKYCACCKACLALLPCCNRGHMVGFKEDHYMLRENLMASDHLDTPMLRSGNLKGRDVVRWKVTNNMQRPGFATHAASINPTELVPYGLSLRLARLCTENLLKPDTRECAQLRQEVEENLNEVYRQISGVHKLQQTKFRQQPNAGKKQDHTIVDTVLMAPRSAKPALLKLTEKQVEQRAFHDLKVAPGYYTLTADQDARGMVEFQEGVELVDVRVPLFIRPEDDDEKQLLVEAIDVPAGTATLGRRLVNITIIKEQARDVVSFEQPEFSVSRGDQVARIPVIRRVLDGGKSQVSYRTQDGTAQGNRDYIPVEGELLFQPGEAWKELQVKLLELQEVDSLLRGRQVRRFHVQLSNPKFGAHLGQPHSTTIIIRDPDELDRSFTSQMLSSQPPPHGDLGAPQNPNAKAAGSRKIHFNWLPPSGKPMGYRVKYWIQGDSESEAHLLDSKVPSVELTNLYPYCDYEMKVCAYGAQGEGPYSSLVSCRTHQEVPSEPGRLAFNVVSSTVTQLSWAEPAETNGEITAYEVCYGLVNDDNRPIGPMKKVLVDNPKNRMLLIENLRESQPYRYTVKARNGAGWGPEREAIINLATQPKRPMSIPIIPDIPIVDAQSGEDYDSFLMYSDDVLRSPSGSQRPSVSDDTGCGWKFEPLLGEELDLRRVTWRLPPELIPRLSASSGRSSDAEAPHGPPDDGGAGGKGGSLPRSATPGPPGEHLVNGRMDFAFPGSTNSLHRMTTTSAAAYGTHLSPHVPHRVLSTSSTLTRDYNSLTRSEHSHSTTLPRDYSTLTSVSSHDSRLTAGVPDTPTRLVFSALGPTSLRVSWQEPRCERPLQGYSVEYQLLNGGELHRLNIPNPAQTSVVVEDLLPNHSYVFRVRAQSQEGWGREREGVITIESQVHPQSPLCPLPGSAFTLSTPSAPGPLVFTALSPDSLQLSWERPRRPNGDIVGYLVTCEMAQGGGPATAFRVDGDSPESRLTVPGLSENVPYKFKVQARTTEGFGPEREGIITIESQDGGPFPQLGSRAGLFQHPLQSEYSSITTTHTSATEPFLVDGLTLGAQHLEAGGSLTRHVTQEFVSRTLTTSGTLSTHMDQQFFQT
Sequence of integrin α3β1 (P26006 33-1051, chain 1 of 2): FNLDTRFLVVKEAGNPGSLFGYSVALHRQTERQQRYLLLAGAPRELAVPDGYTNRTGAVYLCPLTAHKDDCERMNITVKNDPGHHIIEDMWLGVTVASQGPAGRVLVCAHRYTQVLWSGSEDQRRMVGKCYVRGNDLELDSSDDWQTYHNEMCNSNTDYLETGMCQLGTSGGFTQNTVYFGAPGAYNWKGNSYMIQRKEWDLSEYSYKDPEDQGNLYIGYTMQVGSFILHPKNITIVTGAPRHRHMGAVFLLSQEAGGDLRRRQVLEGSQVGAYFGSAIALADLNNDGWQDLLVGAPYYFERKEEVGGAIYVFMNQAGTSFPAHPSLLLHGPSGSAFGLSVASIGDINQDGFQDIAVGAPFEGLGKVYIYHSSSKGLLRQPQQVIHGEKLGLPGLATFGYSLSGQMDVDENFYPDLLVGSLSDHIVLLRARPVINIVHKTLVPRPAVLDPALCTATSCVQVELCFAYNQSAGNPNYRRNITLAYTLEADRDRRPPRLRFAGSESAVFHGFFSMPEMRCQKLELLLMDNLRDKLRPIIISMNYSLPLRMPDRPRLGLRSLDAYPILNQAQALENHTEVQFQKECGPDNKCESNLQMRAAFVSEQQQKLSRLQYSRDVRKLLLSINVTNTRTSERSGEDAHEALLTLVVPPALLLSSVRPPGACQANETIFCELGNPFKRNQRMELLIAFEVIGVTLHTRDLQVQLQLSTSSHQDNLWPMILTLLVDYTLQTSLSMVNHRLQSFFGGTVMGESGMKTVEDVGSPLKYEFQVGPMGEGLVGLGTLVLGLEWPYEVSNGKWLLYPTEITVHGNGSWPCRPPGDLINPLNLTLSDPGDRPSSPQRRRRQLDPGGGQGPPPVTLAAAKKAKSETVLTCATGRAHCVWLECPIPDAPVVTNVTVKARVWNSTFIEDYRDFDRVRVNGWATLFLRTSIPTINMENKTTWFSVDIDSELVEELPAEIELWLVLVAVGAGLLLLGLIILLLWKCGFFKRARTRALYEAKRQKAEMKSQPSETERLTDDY
Sequence of integrin α3β1 (P05556 21-798, chain 2 of 2, further chain): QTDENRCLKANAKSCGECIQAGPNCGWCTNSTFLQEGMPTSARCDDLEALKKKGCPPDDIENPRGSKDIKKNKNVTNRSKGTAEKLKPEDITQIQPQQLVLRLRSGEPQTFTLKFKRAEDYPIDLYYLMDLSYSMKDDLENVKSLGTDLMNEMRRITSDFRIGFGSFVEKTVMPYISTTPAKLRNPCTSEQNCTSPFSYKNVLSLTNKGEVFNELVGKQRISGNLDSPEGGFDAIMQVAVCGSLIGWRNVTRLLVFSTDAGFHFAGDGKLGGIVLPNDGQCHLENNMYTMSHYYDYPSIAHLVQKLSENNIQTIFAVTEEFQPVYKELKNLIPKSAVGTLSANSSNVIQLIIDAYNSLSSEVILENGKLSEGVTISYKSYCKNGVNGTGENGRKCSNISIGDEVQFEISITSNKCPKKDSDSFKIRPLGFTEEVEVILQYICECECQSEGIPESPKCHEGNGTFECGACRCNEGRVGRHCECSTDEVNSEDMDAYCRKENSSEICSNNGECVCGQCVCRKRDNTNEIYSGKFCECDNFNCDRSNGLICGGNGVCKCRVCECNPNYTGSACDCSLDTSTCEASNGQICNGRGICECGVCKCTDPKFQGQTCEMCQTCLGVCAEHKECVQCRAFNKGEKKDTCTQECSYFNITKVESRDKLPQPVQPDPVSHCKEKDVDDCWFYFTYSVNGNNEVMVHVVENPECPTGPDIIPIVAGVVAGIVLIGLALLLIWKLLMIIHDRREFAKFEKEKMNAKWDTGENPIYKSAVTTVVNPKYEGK

## anti-integrin α3 antibody P1B5
[1]
  inhibition of adhesion of A549 cells on laminin 5, 15 minutes: > 90%
  inhibition of adhesion of A549 cells on laminin 5, 1 hour: 20%

## anti-integrin α6 antibody NKI-Go3
[2]
  inhibition of adhesion of A549 cells on laminin 5 after 1 hour, NKI-Go3 in association with P1B5: > 90%

## anti-integrin β4 antibody ASC-3
[2]
  inhibition of adhesion of A549 cells on laminin 5 after 1 hour, ASC-3 in association with P1B5: 70%

B1: TS151 antibody (antibody, mouse IgG1, V domains shown)
VH: QIQLVQSGPELKKPGETVKISCKASGYTFTDYSMHWVKQAPGKGLKWMGWINTETGEPTYTDDFKGRFAFSLETSANTAYLRINNLKNEDTATYFCARREYGNYYGMEYWGQGTSVTVSS
VL: DIVLTQSPASLAVSLGQRATISCRASQSVSTSTFSYIHWYQQKPGQPPKLLIKSASNLESGVPARFSGSGSGTDFTLTIHPVEEEDTATYFCQHSWEIPLTFGAGTKLELK
notes: Murine monoclonal from a hybridoma; also called anti-CD151 antibody TS151
[3]
  binding result: no binding

B2: TS151r antibody (antibody, mouse IgG1, V domains shown)
VH: QVQLQQPGSVVVRPGASVKLSCKASGYTFTSSWMHWAKQRPGQGLEWIGQIHPNSGNTNYNEKFKVKATLTIDTSSSTAYVDLNSLTSGDSAVYYCARGDDAYYSGLYAMDYWGQGTSVTVSS
VL: DIVLTQSPASLAVSLGQRATISCRASQSVSTSRYSYMHWYQQIQGQPPKLLIKYASNLESGVPARFSGSGSGTDFTLNIHPVEEEDTATYHCQHSWEIPYTFGGGTTLEIK
notes: Murine monoclonal from a hybridoma
[3]
  binding result: no binding

— patent publication US20090324600A1 (PIERRE FABRE MEDICAMENT, published 2009)
